Test results reported in patent US6721663B1, “Method for manipulating protein or DNA sequence data in order to generate complementary peptide ligands” (Proteom Limited, priority 1999, dated 2004).

Key:
IL-1b = IL-1b (Homo sapiens, UniProt P01584); experiment: ESAP assay of IL-1b biological activity; format: cell-based; conditions: FIG. 14
Excerpt: (§1) The program picked out antisense region LITVLNI (SEQ ID No. 8) in the IL-1R receptor.

IL-1 [1] = target: T1, IL-1 (Homo sapiens, UniProt P01584); experiment: Serum Amyloid IL-1 assay; format: cell-based; conditions: FIG. 14
Excerpt: as §1

IL-1 [2] = target: T1, IL-1; experiment: Direct binding to IL-1 by biosensing techniques
Excerpt: as §1

Chain of IL-1b (P01584 117-269): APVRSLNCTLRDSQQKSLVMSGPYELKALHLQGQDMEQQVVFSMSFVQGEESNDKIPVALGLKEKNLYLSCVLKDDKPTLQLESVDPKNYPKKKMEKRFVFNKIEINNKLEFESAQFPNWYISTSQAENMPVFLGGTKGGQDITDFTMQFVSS
T1 sequence (P01584 117-269): as above

| inhibition of IL-1 activity in Serum Amyloid IL-1 assay (IL-1 [1]) | direct binding to IL-1 (IL-1 [2]) | Substance | inhibition of the biological activity of IL-1b in ESAP assay (IL-1b) |
| --- | --- | --- | --- |
| – | – | LTILINV (Hypothetical sequence) [scrambled peptide control of LITVLNI, reference compound] | The effect is dependent on the peptide sequence |
| The same effect is also seen | bind directly to IL-1 | LITVLNI (listed as Homo sapiens) [antisense region in the IL-1R receptor picked out by the ALS program] | inhibit the biological activity of IL-1b |
